2 molecules from publication PMC7402622 (Science (New York, N.y.), 2020) can be followed below.

Assay [1] deals with T1, stabilized SARS-CoV-2 S ectodomain trimer (SARS-CoV-2, Wuhan-Hu-1 (GenBank …, UniProt P0DTC2, stabilised)). Briefly: SPR. On the technique in general: Surface plasmon resonance follows binding to a sensor surface in real time, without labels.
The target in assay [2] is T1, stabilized SARS-CoV-2 S ectodomain …. Briefly: cryo-EM structure.

B1: H014 humanized monoclonal antibody (IgG) (antibody, V domains shown)
VH: EVQLVQSGAEVKKPGATVKISCKVSGYSFSNYYIHWVKQAPGKSLEWIGYIDPFNGGTSDNLKFKGAATLTADTSTDTAYMELSSLRSEDTAVYYCARSEYDPYYVMDYWGQGTTVTVSS
VL: IVLTQSPFQSVSPKEKVTITCRASQSISSNLHWYQQKPDQSPKLLIKYASQSISGIPSRFSGSGSGTDFTLTINSLEAEDFGIYFCQQTNFWPYIFGQGTKLEIL
In the case of B1, the binding result in assay [1] was “binds”.

B2: H014 Fab fragment (Fab, V domains shown)
VH: B1 VH
VL: B1 VL
As to B2, the binding result in assay [2] is given as “binds”.
